Data published in IntAct's records for PubMed 24968893.

B1: Autophagy-related protein 19 (Saccharomyces cerevisiae), P35193 (parent)
chain: MNNSKTNQQMNTSMGYPLTVYDECNKFQLIVPTLDANIMLWCIGQLSLLNDSNGCKHLFWQPNDKSNVRILLNNYDYGHLFKYLQCQRKCSVYIGEGTLKKYNLTISTSFDNFLDLTPSEEKESLCREDAHEDPVSPKAGSEEEISPNSTSNVVVSRECLDNFMKQLLKLEESLNKLELEQKVTNKEPNHRISGTIDIPEDRSELVNFFTELKTVKQLEDVFQRYHDYERLSQECDSKTEIASDHSKKETKIEVEPPNERSLQITMNQRDNSLYFQLFNNTNSVLAGNCKLKFTDAGDKPTTQIIDMGPHEIGIKEYKEYRYFPYALDLEAGSTIEIENQYGEVIFLGKYGSSPMINLRPPSRLSAESLQASQEPFYSFQIDTLPELDDSSIISTSISLSYDGDDNEKALTWEEL
partner: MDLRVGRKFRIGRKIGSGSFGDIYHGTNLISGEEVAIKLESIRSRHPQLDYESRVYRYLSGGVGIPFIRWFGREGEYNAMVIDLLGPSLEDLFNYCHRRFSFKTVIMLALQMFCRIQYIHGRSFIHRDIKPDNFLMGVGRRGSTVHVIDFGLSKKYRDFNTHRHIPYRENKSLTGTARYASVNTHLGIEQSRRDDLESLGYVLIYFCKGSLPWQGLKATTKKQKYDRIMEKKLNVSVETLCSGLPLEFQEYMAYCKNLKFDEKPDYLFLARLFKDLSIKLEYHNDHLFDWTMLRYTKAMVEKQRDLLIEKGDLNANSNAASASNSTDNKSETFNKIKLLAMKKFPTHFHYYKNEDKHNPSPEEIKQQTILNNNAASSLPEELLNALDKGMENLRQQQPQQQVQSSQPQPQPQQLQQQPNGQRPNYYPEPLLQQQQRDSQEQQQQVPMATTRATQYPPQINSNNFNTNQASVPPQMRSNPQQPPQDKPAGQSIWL
B2: Autophagy-related protein 19 (Saccharomyces cerevisiae), P35193 (parent)
chain: B1 chain
partner: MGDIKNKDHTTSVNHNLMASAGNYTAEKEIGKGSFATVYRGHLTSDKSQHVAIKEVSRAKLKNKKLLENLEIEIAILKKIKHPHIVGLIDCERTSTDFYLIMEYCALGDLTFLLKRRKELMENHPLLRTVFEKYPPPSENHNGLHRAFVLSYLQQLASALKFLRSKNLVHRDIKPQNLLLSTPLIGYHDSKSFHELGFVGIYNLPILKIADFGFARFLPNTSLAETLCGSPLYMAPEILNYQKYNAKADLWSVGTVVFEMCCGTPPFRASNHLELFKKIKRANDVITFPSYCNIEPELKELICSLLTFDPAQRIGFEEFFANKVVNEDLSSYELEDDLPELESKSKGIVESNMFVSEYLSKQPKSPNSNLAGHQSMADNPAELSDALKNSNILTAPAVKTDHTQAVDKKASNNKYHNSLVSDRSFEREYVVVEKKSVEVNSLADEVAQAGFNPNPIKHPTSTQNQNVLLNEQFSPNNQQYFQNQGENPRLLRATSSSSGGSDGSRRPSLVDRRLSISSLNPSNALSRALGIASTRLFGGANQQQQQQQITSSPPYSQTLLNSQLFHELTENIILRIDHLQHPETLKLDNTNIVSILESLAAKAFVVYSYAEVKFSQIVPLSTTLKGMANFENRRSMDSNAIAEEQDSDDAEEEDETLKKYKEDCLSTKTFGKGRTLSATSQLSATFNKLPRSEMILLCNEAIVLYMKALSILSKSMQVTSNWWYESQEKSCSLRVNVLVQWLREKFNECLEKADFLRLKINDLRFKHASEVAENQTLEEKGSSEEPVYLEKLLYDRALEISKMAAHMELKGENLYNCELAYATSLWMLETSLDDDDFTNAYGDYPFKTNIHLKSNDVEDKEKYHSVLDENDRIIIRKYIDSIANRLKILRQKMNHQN
B3: Serine/threonine-protein kinase ATG1 (Saccharomyces cerevisiae), P53104 (parent)
chain: B2 partner
partner: B1 chain
B4: Autophagy-related protein 19 (Saccharomyces cerevisiae), P35193 (parent)
chain: B1 chain
partner: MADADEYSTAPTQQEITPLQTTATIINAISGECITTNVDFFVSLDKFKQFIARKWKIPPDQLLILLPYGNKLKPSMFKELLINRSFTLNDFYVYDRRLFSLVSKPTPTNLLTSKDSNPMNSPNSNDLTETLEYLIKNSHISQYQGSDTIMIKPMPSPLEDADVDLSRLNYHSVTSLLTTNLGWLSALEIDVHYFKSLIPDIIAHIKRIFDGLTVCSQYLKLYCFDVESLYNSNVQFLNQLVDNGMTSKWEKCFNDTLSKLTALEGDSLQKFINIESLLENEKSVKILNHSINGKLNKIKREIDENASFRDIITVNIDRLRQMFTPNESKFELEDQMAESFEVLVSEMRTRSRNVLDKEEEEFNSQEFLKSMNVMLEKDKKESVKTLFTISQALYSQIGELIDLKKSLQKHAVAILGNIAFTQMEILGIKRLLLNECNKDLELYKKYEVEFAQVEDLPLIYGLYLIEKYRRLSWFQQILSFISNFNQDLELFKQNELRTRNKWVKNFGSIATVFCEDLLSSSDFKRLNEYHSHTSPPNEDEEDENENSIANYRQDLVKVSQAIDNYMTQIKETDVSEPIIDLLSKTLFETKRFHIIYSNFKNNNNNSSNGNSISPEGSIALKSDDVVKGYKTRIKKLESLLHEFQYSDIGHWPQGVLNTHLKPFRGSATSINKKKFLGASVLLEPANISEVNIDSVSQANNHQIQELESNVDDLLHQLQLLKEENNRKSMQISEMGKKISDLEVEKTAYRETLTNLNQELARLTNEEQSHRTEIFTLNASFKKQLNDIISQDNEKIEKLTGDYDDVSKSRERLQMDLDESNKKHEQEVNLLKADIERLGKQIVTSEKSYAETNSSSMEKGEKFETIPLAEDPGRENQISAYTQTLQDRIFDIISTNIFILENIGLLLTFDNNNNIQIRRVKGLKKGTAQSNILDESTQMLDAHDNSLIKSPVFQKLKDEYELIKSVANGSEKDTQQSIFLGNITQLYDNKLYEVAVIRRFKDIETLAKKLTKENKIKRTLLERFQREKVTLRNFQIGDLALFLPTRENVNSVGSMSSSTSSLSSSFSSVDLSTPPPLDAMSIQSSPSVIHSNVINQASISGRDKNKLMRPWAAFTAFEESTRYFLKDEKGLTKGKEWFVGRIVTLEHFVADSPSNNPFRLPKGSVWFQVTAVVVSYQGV

Variants of: B1
Conditions: with hrr25_yeast HRR25, P29295

Variant	effect of a mutation on the interaction
S390A;S391A;S396A	disrupting interaction

Variants of: B2
Conditions: with atg1_yeast ATG1, P53104

Variant	effect of a mutation on the interaction
S390D;S391D;S396D	disrupting interaction

Variants of: B2
Conditions: with atg1_yeast ATG1, P53104
Remark: another data set of the same source

Variant	effect of a mutation on the interaction
S390A;S391A;S396A	disrupting interaction

Variants of: B3
Conditions: with atg19_yeast ATG19, P35193

Variant	effect of a mutation on the interaction
D211A	disrupting interaction

Variants of: B4
Conditions: with atg11_yeast ATG11, Q12527

Variant	effect of a mutation on the interaction
S390D;S391D;S396D	increasing interaction

Variants of: B4
Conditions: with atg11_yeast ATG11, Q12527
Remark: another data set of the same source

Variant	effect of a mutation on the interaction
S390A;S391A;S396A	disrupting interaction

Variants of: B4
Conditions: with atg11_yeast ATG11, Q12527
Remark: another data set of the same source

Variant	effect of a mutation on the interaction
S390A;S391A;S396A	disrupting interaction
